Measured values from patent US10131920B2, “Nucleic acid molecules” (MEDIMMUNE LIMITED, priority 2013, dated 2018).
Where a chain is given by its changes, count along the chain named. Names may count otherwise.

B1: B tRNA: tRNApyl Methanosarcina mazei with A52C mutation (B-box) (nucleic acid)
DNA: GGAAACCTGATCATGTAGATCGAATGGACTCTAAATCCGTTCAGCCGGGTTCGATTCCCGGGGTTTCCG
modifications: expressed or natural sequence
B2: 3×Glu: three tandem repeats of the murine tRNA glu and pyltRNA bicistronic pair (nucleic acid)
DNA: GCCGTGACCTCGGGCCGACGCTCCCTGGTGGTCTAGTGGTTAGGATTCGGCGCTCTCACCGCCGCGGCCCGGGTTCGATTCTCGGTCAGGGAAGCCTCTCCCCCAAACCTCGGAAACCTGATCATGTAGATCGAATGGACTCTAAATCCGTTCAGCCGGGTTAGATTCCCGGGGTTTCCGCTTCTTCCTCTTTTCTGCACCCTCACTTCAGCTGAGCCGTGACCTCGGGCCGACGCTCCCTGGTGGTCTAGTGGTTAGGATTCGGCGCTCTCACCGCCGCGGCCCGGGTTCGATTCTCGGTCAGGGAAGCCTCTCCCCCAAACCTCGGAAACCTGATCATGTAGATCGAATGGACTCTAAATCCGTTCAGCCGGGTTAGATTCCCGGGGTTTCCGCTTCTTCCTCTTTTCTGCACCCCAATATTGCCGTGACCTCGGGCCGACGCTCCCTGGTGGTCTAGTGGTTAGGATTCGGCGCTCTCACCGCCGCGGCCCGGGTTCGATTCTCGGTCAGGGAAGCCTCTCCCCCAAACCTCGGAAACCTGATCATGTAGATCGAATGGACTCTAAATCCGTTCAGCCGGGTTAGATTCCCGGGGTTTCCGTAGCGTCCTTTTTGGAAAGACAAGTGGGTGGCGAATTCGATATC
modifications: Synthetic sequence 3x tRNAglu-pyl DNA construct including 3 repeats of the bicistronic construct tRNAglu-tRNApyl
notes: three tandem repeats of the murine tRNA glu and pyltRNA bicistronic pair
B3: H1-B tRNA: tRNA-B (A52C) under control of the H1 promoter (nucleic acid)
DNA: AATATTTGCATGTCGCTATGTGTTCTGGGAAATCACCATAAACGTGAAATCCCTATCAGTGATAGAGACTTATAAGTTCCCTATCAGTGATAGAGACACCAGGAAACCTGATCATGTAGATCGAATGGACTCTAAATCCGTTCAGCCGGGTCAGATTCCCGGGGTTTCCGGACAAGTGCGGTTTTTTT
modifications: Synthetic sequence H1 tRNA-B construct
notes: tRNA-B (A52C) under control of the H1 promoter
B4: 2×Asp: two tandem repeats of the murine tRNA asp-pyl tRNA bicistronic pair (nucleic acid)
DNA: TCCTCGTTAGTATAGTGGTGAGTATCCCCGCCTGTCACCCGCGAGACCGGCGTTCCATTCCCCGACGGGGAGACGTAGCCCCACCTCGGAAACCTGATCATGTAGATCGAATGGACTCTAAATCCGTTCAGCCGGGTTAGATTCCCGGGGTTTCCGTAGCGTCCTTTTTGGAAAGACAAGGTGCGTCGTAGTCGGCGTTGTCCTCGTTAGTATAGTGGTGAGTATCCCCGCCTGTCACCCGCGAGACCGGCGTTCCATTCCCCGACGGGGAGACGTAGCCCCACCTCGGAAACCTGATCATGTAGATCGAATGGACTCTAAATCCGTTCAGCCGGGTTAGATTCCCGGGGTTTCCGTAGCGTCCTTTTT
modifications: Synthetic sequence 2x tRNAasp-pyl DNA construct including 2 repeats of the bicistronic construct tRNAasp-pyl
notes: two tandem repeats of the murine tRNA asp-pyl tRNA bicistronic pair
B5: Vault B tRNA: tRNA-B downstream of the Vault promoter 5′ region (nucleic acid)
DNA: TGGTCGCTGAGTCATGCTGAAGCACTCTCTTTTTGACTCACTCTTTGTGACGTAGGTCTTTCTCACCAGTCAATAAAATATAATCCGAAAGCAACCTCCCACCAGGAAACCTGATCATGTAGATCGAATGGACTCTAAATCCGTTCAGCCGGGTTCGATTCCCGGGGTTTCCGGACAAGTGCGGTTTTT
modifications: Synthetic sequence Vault tRNA-B construct
notes: tRNA-B downstream of the Vault promoter 5′ region
B6: Vault A2B tRNA: tRNA-A2B downstream of the Vault promoter 5′ region (nucleic acid)
DNA: B5 DNA with A114G, T118A
modifications: Synthetic sequence Vault tRNA-A2B construct
notes: tRNA-A2B downstream of the Vault promoter 5′ region

Tests used:
[1] = system: GFPY40 reporter (GFP containing an amber codon) in HEK293 cells stably expressing pylRS; experiment: Amber suppression-dependent GFP expression (GFPY40 reporter), transient transfection, flow cytometry; assay type: cell-based; settings: for GFP MFI, FIG. 9: 1 ug GFPY40 reporter and 1 ug tRNA expression plasmid; for GFP MFI, FIG. 8: 1 ug PCR product of each construct, lys azide nnAA
Protocol: (§1) To assess the function of the tRNA variants, an in vitro assay was established where cells are transiently transfected with a tRNA construct and a reporter construct encoding GFP containing an amber codon interrupting its reading frame (GFPY40). HEK293 cells stably expressing pylRS were transiently transfected with various tRNA constructs (1 ug) and the GFPY40 reporter (1 ug). In the absence of elements that support amber suppression, a truncated GFP protein is generated and the cell is not fluorescent. However, the introduction of a functional tRNA and the presence of a nnAA that supports amber suppression allows for the production of full length GFP resulting in fluorescent cells. The level of GFP expression reflects the efficiency of amber suppression and is quantified by flow cytometry. tRNA genes encoding wild type tRNApyl (WT tRNA), or containing mutations in the B-box (B tRNA—SEQ ID No 9), in both the A and B box (A2B tRNA—SEQ ID No 10), or in the A box (A1 tRNA-SEQ ID No 7; or A2 tRNA SEQ ID No 11), all under control of the H1 promoter were generated by site directed mutagenesis and assayed. The H1 promoter ensured that the variants were expressed and allowed us to examine the functional effects of the mutations introduced into the tRNA genes. In addition a sample transfected with GFPY40 alone was generated to establish background GFP levels. The transfected cells were grown in presence of the aminoacid analogue lys azide (2 mM) and incubated for 18 hours. GFP fluorescence was then assayed by flow cytometry and mean fluorescence intensity determined for each sample. Data were analysed with FCS Express and the mean fluorescence intensity of each sample determined using markers that constrain the data set to cells showing fluorescence above negative controls.
To begin to assess whether the tRNA mutations can support expression of the tRNA we assayed tRNA constructs encoding the wild type tRNA in the absence of the H1 promoter. Constructs encoding wild type tRNApyl (WT tRNA) or containing mutations in the B-box (B tRNA—SEQ ID No 9) or in both the A and B box (A2B; A2B tRNA—SEQ ID No 10) were assayed using our in vitro amber suppression assay described above. WT tRNA under control of the H1 promoter (H1-tRNA) was used as a positive control, and in addition one sample was transfected only with the GFPY40 reporter to illustrate background amber suppression in the absence of tRNA. The transfected cells were exposed to 2 mM lys-azide nnAA and cells incubated for three days. GFP expression was examined by flow cytometry and mean fluorescence intensity determined.
Two copies of the WT, B, or A2B tRNA were cloned in tandem to generate a single vector containing two copies of WT, B, or A2B tRNA. To assess the effect of increased gene doses by these constructs, cells expressing WTpylRS were transiently transfected with the tRNA constructs and the GFPY40 reporter construct and GFP expression assayed after two days.
The activity of each construct was assessed by transient transfection into cells stably expressing WT pylRS with the GFPY40 reporter as described above. For this experiment, 1 ug of a PCR product encoding each of the indicated constructs was used. In each case, cells were exposed to the lys azide nnAA for three days and GFP levels assayed by flow cytometry. Mean fluorescence intensities were determined for each sample and plotted (FIG. 8).

[2] = system: GFPY40 reporter in 3H7 cells; experiment: Amber suppression-dependent GFP expression (GFPY40 reporter), transient transfection of 3H7 cells, flow cytometry; assay type: cell-based; settings: three days; for GFP MFI in the absence of nnAA, FIG. 6: no nnAA; for GFP MFI, FIG. 11: 1 ug GFPY40 and 1 ug tRNA expression vector, lys-azide
Protocol: as §1, with “controls. […] The constructs thus are functional and may contain the necessary genetic sequence to enable the expression of the tRNA also in the absence of an upstream promoter element such as the H1 promoter.” for “controls.”
Having established that the B mutation introduced into the pyltRNA sequence enabled expression of the tRNA that supported amber suppression we then asked whether this mutation affected the orthogonality of the tRNA and led to the incorporation of natural amino acids. To do this 3H7 cells were transiently transfected with expression constructs encoding WT-tRNA, B-tRNA, H1-tRNA and H1-B tRNA along with the GFPY40 reporter. Transfected cells were grown in the presence of 2 mM lys azide or absence of nnAA as indicated (FIG. 6), and GFP expression assessed by flow cytometry after three days. In addition, a sample transfected only with GFPY40 was examined to determine background amber suppression levels in the absence of tRNA. […] A comparison of GFP expression between the WT tRNA (MFI 33,781) and tRNA B (232,505) lacking extragenic promoter elements confirms that the B mutation generates a functional intragenic promoter. Indeed, the B tRNA construct enabled a seven-fold increase in the level of amber suppression dependent expression of GFP over WT tRNA.
We also tested the utility of a bicistronic tRNA expression construct for its ability to express tRNApyl. Here, the murine tRNA Glu and tRNA Asp were utilized. In each case, multiple repeats of the constructs were generated to increase activity (3×Glu-pyl and 2×Asp-pyl). Here, 3H7 cells were transiently transfected with 1 ug of the reporter construct GFPY40 and 1 ug of the indicated tRNA expression vectors (FIG. 11) and incubated with lys-azide for three days. Data were collected by flow cytometry and mean fluorescence intensities for each sample were plotted. […] The construct consisting of the 7SL WT tRNA (MFI=312) was included as a metric for low efficiency. In addition cell lines containing only the GFPY40 reporter were used as negative controls (MFI=0).

[3] = 2 mM lys-azide nnAA, three days

Row | Molecule | GFP MFI, FIG. 9 [1] | GFP MFI in the presence of lys-azide, FIG. 6 ([2]; 2 mM lys azide) | GFP MFI in the absence of nnAA, FIG. 6 [2] | GFP MFI, FIG. 11 [2] | GFP MFI, FIG. 8 ([1]; three days) | other results
1 | B1 | 89,869 | 232,505 | 42,104 |  |  | GFP mean fluorescence intensity (MFI), FIG. 5 [1, 3]: 410,131.1; fold higher expression of GFP than the wt tRNA construct (FIG. 5) [1, 3]: four-fold; capacity to support amber suppression relative to H1 WT tRNA (FIG. 4) ([1]; all tRNA variants under control of the H1 promoter, 1 ug construct + 1 ug GFPY40, lys azide 2 mM, 18 hours): support amber suppression, albeit at a lower level than the WT tRNA; GFP MFI, single copy tRNA, FIG. 7 ([1]; cells expressing WTpylRS, after two days, single copy): 67,489; GFP MFI, tandem copies of tRNA, FIG. 7 ([1]; cells expressing WTpylRS, after two days, single vector containing two copies in tandem): 110,941; GFP MFI, FIG. 10 ([1]; cells stably expressing WTpylRS, lys azide, three days): 329; increase in amber suppression dependent expression of GFP over WT tRNA (FIG. 6) ([2]; 2 mM lys azide): seven-fold
2 | B2 |  |  |  | 419 |  | 
3 | B3 |  | 313,386 | 36,217 |  |  | 
4 | B4 |  |  |  | 419 |  | 
5 | B5 | 168,298 |  |  |  | 170,838 | 
6 | B6 |  |  |  |  | 154,445 | 
